Literature values in paper PMC2686754.

Legend:
TGF-β1 (Homo sapiens) = TGF-β1 (Homo sapiens) (UniProt P01137)
BMP4 (Homo sapiens) = BMP4 (Homo sapiens) (UniProt P12644)
Sequence of UniProt P12644 (P12644 293-408): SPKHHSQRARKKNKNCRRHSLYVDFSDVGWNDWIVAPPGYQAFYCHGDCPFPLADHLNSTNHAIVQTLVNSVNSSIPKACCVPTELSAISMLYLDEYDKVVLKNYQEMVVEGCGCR

Sequence of UniProt P01137 (P01137 279-390): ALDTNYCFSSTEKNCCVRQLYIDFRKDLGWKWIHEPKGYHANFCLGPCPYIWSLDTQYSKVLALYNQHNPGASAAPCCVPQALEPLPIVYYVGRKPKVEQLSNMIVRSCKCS

## CCN2 (from UniProt P29279)
TGF-β1 (Homo sapiens)
  Kd: 30 nM
BMP4 (Homo sapiens)
  Kd: 5 nM
